According to patent US20210393776A1 (FABION PHARMACEUTICALS, published 2021):
Read-outs that look alike come from different tables or passages of the source.

T1: full length human EpCAM on CHO cells (human, UniProt P16422 24-314)
T1 construct: CHO cells stably expressing full length human EpCAM; also called hu-EpCAM-FL; human EpCAM-FL
T1 sequence: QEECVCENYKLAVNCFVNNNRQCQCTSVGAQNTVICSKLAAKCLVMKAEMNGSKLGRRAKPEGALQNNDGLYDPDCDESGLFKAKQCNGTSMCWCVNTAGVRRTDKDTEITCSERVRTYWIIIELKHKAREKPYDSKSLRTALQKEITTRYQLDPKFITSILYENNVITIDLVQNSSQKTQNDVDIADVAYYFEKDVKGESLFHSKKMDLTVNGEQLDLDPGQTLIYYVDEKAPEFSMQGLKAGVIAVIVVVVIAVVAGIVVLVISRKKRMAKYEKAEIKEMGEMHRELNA


Experiments:
[1] = target: T1, full length human EpCAM on CHO cells; assay: flow cytometry on CHO cells stably expressing full length human EpCAM, PE detection
Procedure: (§1) In general, cells were blocked in 1% BSA/PBS for 1 hr at 4 C and antibodies of interest were diluted into 1% BSA/PBS were added to blocked cells for incubation at 4° C. for 1 hr. after one wash with 1% BSA/PBS, staining procedures vary depending on the availability of antibodies or fluorescent antibody conjugate. In some case, direct fluorescence conjugates were used. In other cases, anti affinity tag antibodies (secondary antibody) were used to incubate with the cells followed by anti-species antibody conjugated with a particular fluorophore. In some other experiments, antibody (or other affinity reagent such as streptavidin) with fluorescence conjugate was used directly as secondary antibody (secondary reagent).

[2] = target: T2, human CD3epsilonAA1-27.Fc (human); assay: ELISA, immobilised antigen, biotinylated protein, streptavidin-HRP, ABTS, OD405
T2 construct: also called recombinant human CD3epsilon N-terminal peptide (aa1-27.Fc fusion); CD3epsilon N-terminal amino acid 1-27 peptide Fc fusion

[3] = target: T3, recombinant cyno CD3epsilon/delta Fc(K-H) heterodimer (cynomolgus); assay: as above
T3 construct: also called cynomolgus CD3epsilon/delta; recombinant cyno CD3epsilon/delta heterodimeric Fc protein; copies: 1 + 1
Procedure: (§2) MAXISORP® plates were used for ELISA binding assays. 50 μl of 1 μg/ml of antigens in 50 mM NaHCO₃were used to coat the plates at 4° C. overnight followed by incubation with 200 μl of 5% dry milk/TBS-0.05% TWEEN®-20 (i.e., polysorbate 20) (MTBS-T)/well. Antibodies were usually diluted in 5% MTBS-T and transferred to antigen coated plates and incubated for 1 hr with gentle shaking at room temperature. Bound antibodies were detected either by streptavidin-HRP (for detecting biotinylated antibodies) or anti-his tag-HRP conjugate (for his tagged antibodies). ABTS™ (i.e., 2,2′-azino-bis(3-ethylbenzothiazoline-6-sulphonic acid) solution in 50 mM citrate buffer was used for detection with OD405 measurement on using a microplate reader (Biotek).

[4] = target: T1, full length human EpCAM on CHO cells; assay: flow cytometry on CHO cells stably expressing full length human EpCAM, PE detection; remark: listed apart in the source
Procedure: as §1

[5] = target: T3, recombinant cyno CD3epsilon/delta …; assay: ELISA, immobilised antigen, biotinylated protein, streptavidin-HRP, ABTS, OD405; remark: listed apart in the source
Procedure: as §2

[6] = target: T2, human CD3epsilonAA1-27.Fc; assay: as above; remark: listed apart in the source
Procedure: as §2

Binder	binding result [1]	binding result [2]	binding result [3]	binding result [4]	EC50 (read off the curve) [5]	binding result [5]	EC50 (read off the curve) [6]
EpCAM1.1-(L)-hu-1F3.1 Fab (bispecific antibody, member of group m19; also called EpCAM1.1-(L)-hu-1F3 Fab) heavy chain Fd (VH-CH1), unfused: EVQLVESGGGLVQPGGSLRLSCAASGFTFSTYAMNWVRQAPGKGLEWVSRIRSKYNNYATYYADSVKDRFTISRDDSKNTLYLQMNSLRAEDTAVYYCARHGNFGNSYVSWFAYWGQGTMVTVSSASTKGPSVFPLAPCSRSTSESTAALGCLVKDYFPEPVTVSWNSGALTSGVHTFPAVLQSSGLYSLSSVVTVPSSNFGTQTYTCNVDHKPSNTKVDKTVGGGGSHHHHHHH light chain with anti-EpCAM scFv EpCAM1.1 at the N-terminus: QVQLQQSGGGLVQPGGSLRLSCAASGFTFSNYWMSWVRQAPGKGLEWVANIKQDGSEKFYVDSVKGRFTISRDNAKNSLYLQMNSLRAEDMAVYYCARVGGAWELGYWGQGTLVTVSAGGGGSGGGGSGGGGSGAQSVLTQPPSVSGAPGQRVTISCTGSSSNIGSYYGVHWYQQIPGTAPKLLIYSDTNRPSGVPDRFSGSKSGTSASLAITGLQAEDEADYYCQSYDSSLSGRVFGGGTKVTVLGRAQAVVTQEPSLTVSPGGTVTLTCRSSTGAVTTSNYANWVQQKPGQAPRGLIGGTNKRAPGTPARFSGSLLGGKAALTLSGVQPEDEAEYYCALWYSNLWVFGGGTKLTVLGQPKAAPSVTLFPPSSEELQANKATLVCLISDFYPGAVTVAWKADSSPVKAGVETTTPSKQSNNKYAASSYLSLTPEQWKSHRSYSCQVTHEGSTVEKTVAPTECS	binds	binds	binds	–	–	–	–
EpCAM1.1-(H+L)-hu-1F3.1 Fab (bispecific antibody, member of group m19; also called EpCAM1.1-(H+L)-hu-1F3 Fab) heavy chain Fd with anti-EpCAM scFv EpCAM1.1 at the N-terminus: QVQLQQSGGGLVQPGGSLRLSCAASGFTFSNYWMSWVRQAPGKGLEWVANIKQDGSEKFYVDSVKGRFTISRDNAKNSLYLQMNSLRAEDMAVYYCARVGGAWELGYWGQGTLVTVSAGGGGSGGGGSGGGGSGAQSVLTQPPSVSGAPGQRVTISCTGSSSNIGSYYGVHWYQQIPGTAPKLLIYSDTNRPSGVPDRFSGSKSGTSASLAITGLQAEDEADYYCQSYDSSLSGRVFGGGTKVTVLGRAEVQLVESGGGLVQPGGSLRLSCAASGFTFSTYAMNWVRQAPGKGLEWVSRIRSKYNNYATYYADSVKDRFTISRDDSKNTLYLQMNSLRAEDTAVYYCARHGNFGNSYVSWFAYWGQGTMVTVSSASTKGPSVFPLAPCSRSTSESTAALGCLVKDYFPEPVTVSWNSGALTSGVHTFPAVLQSSGLYSLSSVVTVPSSNFGTQTYTCNVDHKPSNTKVDKTVGGGGSHHHHHHH light chain with anti-EpCAM scFv EpCAM1.1 at the N-terminus: QVQLQQSGGGLVQPGGSLRLSCAASGFTFSNYWMSWVRQAPGKGLEWVANIKQDGSEKFYVDSVKGRFTISRDNAKNSLYLQMNSLRAEDMAVYYCARVGGAWELGYWGQGTLVTVSAGGGGSGGGGSGGGGSGAQSVLTQPPSVSGAPGQRVTISCTGSSSNIGSYYGVHWYQQIPGTAPKLLIYSDTNRPSGVPDRFSGSKSGTSASLAITGLQAEDEADYYCQSYDSSLSGRVFGGGTKVTVLGRAQAVVTQEPSLTVSPGGTVTLTCRSSTGAVTTSNYANWVQQKPGQAPRGLIGGTNKRAPGTPARFSGSLLGGKAALTLSGVQPEDEAEYYCALWYSNLWVFGGGTKLTVLGQPKAAPSVTLFPPSSEELQANKATLVCLISDFYPGAVTVAWKADSSPVKAGVETTTPSKQSNNKYAASSYLSLTPEQWKSHRSYSCQVTHEGSTVEKTVAPTECS	binds	binds	binds	–	–	–	–
EpCAM2.2-(H)-hu-1F3.1 Fab (bispecific antibody, member of groups m21 and m31) heavy chain Fd with anti-EpCAM scFv EpCAM2.2 at the N-terminus: QVQLQESGPGLVKPSETLTLTCSVSGGSISGYYWSWIRQPPGMGLEWIGSVHHSGSTSYNPSLKSRVTISVDTSKNQFSLKLNSVTAADTAVYYCARYRGSGLDYWGQGTLVTVSSGGGGSGGGGSGGGGSQSVLTQPPSVSAAPGQKVTISCSGDSSNIGKNYVSWYQQLPGTAPKLLIYENNERPSGVPDRFSGSKSGTSATLGITGLQTGDEADYYCAAWDTSLSARVFGGGTKVTVLGRAEVQLVESGGGLVQPGGSLRLSCAASGFTFSTYAMNWVRQAPGKGLEWVSRIRSKYNNYATYYADSVKDRFTISRDDSKNTLYLQMNSLRAEDTAVYYCARHGNFGNSYVSWFAYWGQGTMVTVSSASTKGPSVFPLAPCSRSTSESTAALGCLVKDYFPEPVTVSWNSGALTSGVHTFPAVLQSSGLYSLSSVVTVPSSNFGTQTYTCNVDHKPSNTKVDKTVGGGGSHHHHHHH light chain, unfused: QAVVTQEPSLTVSPGGTVTLTCRSSTGAVTTSNYANWVQQKPGQAPRGLIGGTNKRAPGTPARFSGSLLGGKAALTLSGVQPEDEAEYYCALWYSNLWVFGGGTKLTVLGQPKAAPSVTLFPPSSEELQANKATLVCLISDFYPGAVTVAWKADSSPVKAGVETTTPSKQSNNKYAASSYLSLTPEQWKSHRSYSCQVTHEGSTVEKTVAPTECS	–	–	–	binds	~2 nM	–	–
EpCAM2.2-(L)-hu-1F3.1 Fab (bispecific antibody, member of groups m21 and m31; also called EpCAM2.2-(L)-hu-1F3 Fab) heavy chain Fd (VH-CH1), unfused: EVQLVESGGGLVQPGGSLRLSCAASGFTFSTYAMNWVRQAPGKGLEWVSRIRSKYNNYATYYADSVKDRFTISRDDSKNTLYLQMNSLRAEDTAVYYCARHGNFGNSYVSWFAYWGQGTMVTVSSASTKGPSVFPLAPCSRSTSESTAALGCLVKDYFPEPVTVSWNSGALTSGVHTFPAVLQSSGLYSLSSVVTVPSSNFGTQTYTCNVDHKPSNTKVDKTVGGGGSHHHHHHH light chain with anti-EpCAM scFv EpCAM2.2 at the N-terminus: QVQLQESGPGLVKPSETLTLTCSVSGGSISGYYWSWIRQPPGMGLEWIGSVHHSGSTSYNPSLKSRVTISVDTSKNQFSLKLNSVTAADTAVYYCARYRGSGLDYWGQGTLVTVSSGGGGSGGGGSGGGGSQSVLTQPPSVSAAPGQKVTISCSGDSSNIGKNYVSWYQQLPGTAPKLLIYENNERPSGVPDRFSGSKSGTSATLGITGLQTGDEADYYCAAWDTSLSARVFGGGTKVTVLGRAQAVVTQEPSLTVSPGGTVTLTCRSSTGAVTTSNYANWVQQKPGQAPRGLIGGTNKRAPGTPARFSGSLLGGKAALTLSGVQPEDEAEYYCALWYSNLWVFGGGTKLTVLGQPKAAPSVTLFPPSSEELQANKATLVCLISDFYPGAVTVAWKADSSPVKAGVETTTPSKQSNNKYAASSYLSLTPEQWKSHRSYSCQVTHEGSTVEKTVAPTECS	–	–	–	binds	–	binds	~2 nM
EpCAM2.2-(H+L)-hu-1F3.1 MSFP (bispecific antibody, (H + L) format has a GlyArgAla linker on both chains; His tag at the C-terminus of the Fd; also called double fusion of EpCAM2.2 scFv to both the HC and LC of hu-1F3.1 Fab) heavy: QVQLQESGPGLVKPSETLTLTCSVSGGSISGYYWSWIRQPPGMGLEWIGSVHHSGSTSYNPSLKSRVTISVDTSKNQFSLKLNSVTAADTAVYYCARYRGSGLDYWGQGTLVTVSSGGGGSGGGGSGGGGSQSVLTQPPSVSAAPGQKVTISCSGDSSNIGKNYVSWYQQLPGTAPKLLIYENNERPSGVPDRFSGSKSGTSATLGITGLQTGDEADYYCAAWDTSLSARVFGGGTKVTVLGRAEVQLVESGGGLVQPGGSLRLSCAASGFTFSTYAMNWVRQAPGKGLEWVSRIRSKYNNYATYYADSVKDRFTISRDDSKNTLYLQMNSLRAEDTAVYYCARHGNFGNSYVSWFAYWGQGTMVTVSSASTKGPSVFPLAPCSRSTSESTAALGCLVKDYFPEPVTVSWNSGALTSGVHTFPAVLQSSGLYSLSSVVTVPSSNFGTQTYTCNVDHKPSNTKVDKTVGGGGSHHHHHHH light: QVQLQESGPGLVKPSETLTLTCSVSGGSISGYYWSWIRQPPGMGLEWIGSVHHSGSTSYNPSLKSRVTISVDTSKNQFSLKLNSVTAADTAVYYCARYRGSGLDYWGQGTLVTVSSGGGGSGGGGSGGGGSQSVLTQPPSVSAAPGQKVTISCSGDSSNIGKNYVSWYQQLPGTAPKLLIYENNERPSGVPDRFSGSKSGTSATLGITGLQTGDEADYYCAAWDTSLSARVFGGGTKVTVLGRAQAVVTQEPSLTVSPGGTVTLTCRSSTGAVTTSNYANWVQQKPGQAPRGLIGGTNKRAPGTPARFSGSLLGGKAALTLSGVQPEDEAEYYCALWYSNLWVFGGGTKLTVLGQPKAAPSVTLFPPSSEELQANKATLVCLISDFYPGAVTVAWKADSSPVKAGVETTTPSKQSNNKYAASSYLSLTPEQWKSHRSYSCQVTHEGSTVEKTVAPTECS	–	–	–	–	~3 nM	–	~3 nM
